Results as given in patent US20250295587A1, “COMPLEX LIPID NANOPARTICLES ENCAPSULATING POLYPEPTIDES AND USES THEREOF” (SAIL BIOMEDICINES, INC., priority 2022, published 2025).

How the values were obtained:
[1] = Particle loading / insulin encapsulation efficiency by bicinchoninic acid assay (BCA); format: physicochemical; conditions: insulin concentration of the dosed preparation
Experimental: Next, the mixture of re-hydrated particles containing the active biomolecule was purified and separated from the free active biomolecule not loaded in the particles by a dialysis step overnight. The dialysis was performed in a 100 kD dialysis membrane in the buffer used for the formulation process as discussed above, at a buffer volume at least 2000× the volume of the solution to be purified (e.g., 0.1M sodium bicarbonate, pH 8.2, buffer). The dialysate was concentrated in centrifugal unit to the preferred concentration. Alternatively, the purification and separation step could be performed with tangential flow filtration (TFF). The described purification steps are optional and were not performed for all formulations. Particle morphological characteristics were analyzed with dynamic light scattering methods. Particle loading efficiency was quantified with a bicinchoninic acid assay (BCA).
The insulin encapsulation efficiency of the complex lipid formulations (the amount of insulin that was trapped to the vesicles) was also characterized, and the results ranged consistently from 25-35%. Similar characterizations were measured for other formulations of complex lipid particles.

[2] = design: species or system mice; conditions: mouse, in vivo
Experimental: The animals used were C57BL6 female 8-week-old mice (Jax #0664). […] Mice were weighed, and a pre-bleed sample was taken (through tail vein, retro-orbital or submandibular means). The mice were fasted overnight before being dosed via intracolonic administration with 50 uL of a given insulin-loaded complex lipid formulation (Table 8). Non-terminal bleeds at 30 minutes and 60 minutes post-dose were taken, alternating routes of collection. A terminal bleed at 120 minutes post-dose via cardiac puncture was also taken. Whole blood samples from the pre-bleed, 30 minute, 60 minute, and 120 minute bleeds were processed for plasma then stored at −80° C. Insulin levels were quantified by MSD assay. Exposure to the active biomolecule (e.g. insulin) was measured as area under the curve (AUC) of the four measured timepoints, and dose was measured as BCA*dose volume (0.05 mL). Therefore, the data in Table 9 for each mouse is shown as systemic levels of insulin (or exposure normalized by dose). […] Unexpectedly, 20 of 22 (>90%) different complex lipid formulations out-performed free IC insulin.

Substance: Control: free insulin given by intracolonic (IC) administration, not encapsulated
- BCA (Insulin mg/mL) [1]: Avg = 1.16 mg/mL
- Systemic levels of insulin (exposure AUC normalized by dose), Avg [2]: Avg = 290.1
